Results as given in publication PMC5719984, “The Structure of a Conserved Domain of TamB Reveals a Hydrophobic β Taco Fold” (Structure(London, England:1993), 2017).

Target: the molecule itself
Test: SEC-MALS; 100 μl samples at 1-5 mg/ml on Superdex 200 10/300 GL in 20 mM Tris, 200 mM NaCl, 0.05 % LDAO pH 7.9, 0.6 ml/min

B1: TamB_(963-1138) (domain or fragment, E. coli K12, UniProt P39321 963-1138, looked up)
chain: MDVSPDVVFEATPNLFTLDGRVDVPWARIVVHDLPESAVGVSSDVVMLNDNLQPEEPKTASIPINSNLIVHVGNNVRIDAFGLKARLTGDLNVVQDKQGLGLNGQINIPEGRFHAYGQDLIVRKGELLFSGPPDQPYLNIEAIRNPDATEDDVIAGVRVTGLADEPKAEIFSDPAM
notes: whole TamB has 1,259 amino acids; Cloned into pET-21a via NdeI and XhoI; A selenomethionine-labelled form was used for phasing only; Construct as described by Josts et al., 2014
stoichiometry N: 2
